Laboratory results published in the DeepSol protein solubility set.

test: soluble on expression in E. coli; label from the status in PepcDB or PDB records

Sequence	soluble on expression in E. coli
KKSPMLCGQYPVKSEGKELKIVVQPETQHRARYLTEGSRGSVKDRTQQGFPTVKLEGHNEPVVLQVFVGNDSGRVKPHGFYQACRVTGRNTTPCKEVDIEGTTVIEVGLDPSNNMTLAVDCVGILKLRNADVEARIGIAGSKKKSTRARLVFRVNIMRKDGSTLTLQTPSSPILCTQPAGVPEILKKSLHSCSVKGEEEVFLIGKNFLKGTKVIFQENVSDENSWKSEAEIDMELFHQNHLIVKVPPYHDQHITLPVSVGIYVVTNAGRSHDVQPFTYTPD	soluble
MAHHHHHHMSRHPLSRHINTSSVKLKIVKCKLFDIGEGISEVEITQWNKNEGDNVSEMETLLTVQSDKAAVDITSKYSGVLVKRYAEEKDVIKIGSYFCEIDTEDEVGEAAEEVVANEVADEADGRVDPGGPLSPAKVTQQGSKAPTVKASPGVKKKAQEYKLDVDAIGSYFSKEAITMLDVELYHQKVKSGEISNAGSDFNGEVLEEVPLKGIKLAMCKCMNDSLSIPLFHLNEKYNVQNLLSARNVIKKSVLQKDNVNVTLTSVLIKLISTVLKDFPLLNSKFDSQKNAYTIFKSHNVCVAMDTPNGLLVPNIKQVESKNVVEIQKELTSLRDKALQMKLSKSDISGGTITVSNFGVIGGTFATPIVFENQACIIGLSKIQKQLLLKNEKKELTALSDILVADVMNLTFGADHRFVDGATLAQFSKKLKEVVEGVTSLDPYAA	not soluble
MSLKANNLLSQFGDHRQRVQSAITAVCEGRGILLVDDENRENEGDLIFSAQSMTEADMAIMIRHCSGIVCLCITEEKARQLNLPLMVEQNTSKYGTAFTISIEAAEGVTTGVSAADRIQTIRTAIAPNATPESLHHPGHIFPLIARSGGIKERSGHTEGSIDLMKLAGLAPCAVLCELTNDDGTMARLPEIIKFGLEHKYPVVTINDLKEYQTAPDFLPKLVGSFSCPAAENPTTAIMEAAFRHHYMHYRYINCEVGPENLAAAIQGAKAMGWRGFNCSLPNKVEIIRYLDELGESAKIIGAVNTVVIGDDQRATGENTDGKGFVKAISEIITIQDKKIALLGAGGAARAIAVEMALAGVKEITILNRNRDKGQALADLLNSQTVATARFVLWDHPYRFSTDIDIVINATSVGLYSNVDQRLNIDTDTLLPHMVVADCIPNPVYTQLLRDAVRRGCCHVLPGMKMLVYQAVIAIKYWSGVDVDPDIMLEKLKEVVKEGHHHHHH	soluble
MGSDKIHHHHHHMTNTLKTSYQKTPYKLGGNGPRNVGVLTEALQNIDDNSESDIYGNGAVIENFETKIAKILGKQSAVFFPSGTMAQQIALRIWADRKENRCVAYHPLSHLEIHEQDGLKELQQITPILLGTANRLLTIDDIKSLREPVSSVLIELPQREIGGQLPSFEELEEISEYCHEQGISLHLDGARLWEIMPFYQKSAEDICSLFDSVYVSFYKGIGGIAGAILAGNADFVQEAKIWKRRYGGDLISLYPYILSADYYFEKRIGKMAEYFEAAKGLAERFNSCPGLKTVPEVPISNMFHVYFEKSADEVGTILTKIQDETGVGISGYLQEKSADVCAFEVSVGDAFAEIPTKDLESAFECLEKELRL	not soluble
MHKRATSPLSAARTRRKPHGWKKREDDGVGGRFLSIGECMVELSQAGNGLLRKGFAGDTFNAAWYARACLPQDWSVDYFTALGDDPLSEDMLAFIAEAGIGTEKIRRIKGGTPGLYLINLKDGERTFSYWRNAAAARQLAADADHLRKTVESADVVYFSGITLAILASAHDVDTFLAELRRARAAGKLVVFDPNIRPRLWADRDVMLETISNGARAATLVMPSFDDEASHFGDVSVEATIARYRSLGVENIVVKDGAKGATLDFGGSRSHAPAEKAVDVVDTTSAGDSFNGAFLARYVTGSSPEEAATFAARAAATVIGHHGALISPELLPLVG	not soluble
MVFDKLLEQAGINLEFEDKEIKDSDYLGDVSDLIKIAVIGVGGSGNNTISRLYDLGVQGADLIAMNTDAQHLHQIKAHKKLLLGKSITHGKGSGGDPRIGYRAAEASASEIADIVKDYDLIFLTAGMGNGTGTGATPVIARIIKETARNNGLPQEPLVISVVTFPFKMEGKVRIEKAKAGIEMLLEYSDTVIIIQNDKLIELVPKLPIQVAFRFADEIIARMVKGIVETIKLPSMVNIDYADIYSVMKGGGPALIGIGESDSNNRAVDAVMEALNNKMLDIEFGSGDKALVHFTVGPDVSLEEITKAMEIVYERLGEKSEIKWGAMIEEDMGKTVRAMVIMTGVRSPQILGNINVNALTYSSSSLVVPRDSKIMSESKVDEIFSSIDPRASKLRKGNNSSRINKIFKDLGFYEL	soluble
MGSDKIHHHHHHEIRENLLGNYSDRVLVVSHRADWRNAPENSLQGIRNCIDMGVDMVEIDLKKTKDGHLVIMHDKTINRTMTGKGNAEDYTLAELKAMRLKNGAGCKTRHQIPTLEEVMLLCKGKIMVNIDKGYDYFQEAYAVLEKTGTIDHCVIKAGLPYERVKAENGDVLDKVIFMPIVNLHKEGAEKIINDYQSHMKPTAYELVFNDDNEEILRLIRKVRDSGAKLFINSLWPELCGGHDDDRAVELHQPDESWGWILNQGAKLIQTDRPALLLEYLRKKKLHD	not soluble
MERTVVETRYGRLRGEMNEGVFVWKGIPYAKAPVGERRFLPPEPPDAWDGVREATSFGPVVMQPSDPIFSGLLGRMSEAPSEDGLYLNIWSPAADGKKRPVLFWIHGGAFLFGSGSSPWYDGTAFAKHGDVVVVTINYRMNVFGFLHLGDSFGEAYAQAGNLGILDQVAALRWVKENIAAFGGDPDNITIFGESAGAASVGVLLSLPEASGLFRRAMLQSGSGSLLLRSPETAMAMTERILDKAGIRPGDRERLLSIPAEELLRAALSLGPGVMYGPVVDGRVLRRHPIEALRYGAASGIPILIGVTKDEYNLFTLTDPSWTKLGEKELLDRINREVGPVPEEAIRYYKETAEPSAPTWQTWLRIMTYRVFVEGMLRTADAQAAQGADVYMYRFDYETPVFGGQLKAAHALELPFVFHNLHQPGVANFVGNRPEREAIANEMHYAWLSFARTGDPNGAHLPEAWPAYTNERKAAFVFSAASHVEDDPFGRERAAWQGR	soluble
GPGSMYSKTPCVLGMPYEAAGAVLCNNPYRSQALSWYRKFLKAAFTVPWETDDDALYVMEESRRLFRQNARLTDVEMIQRKLREAEMRYELGVHYRIPYPRPVHKMQGSLQESGVPYAADLDSMYDHPVNPRTGRISEGSANYGVMGGVDNSNELLEGEMGADAEDFSK	soluble
MSQFISLTQYQLIEVQGADAEKYLQGQLTSDVVRLASGATTLTAHCDPKGKMNAIYRLFKVSSEQFFLLVKKDILPSGLDALKKYAVFSKVSFDLRDWQIIGVIGEKCGKITPNFSLEIDEKRSILLNETELPVNFNGDEKIWEVADIQAGLPNLSPQTQNEFIPQALNLQAIEQAISFTKGCYIGQETVARAKYRGANKRAMFIFKVQTQQEAEIGSEIEMQLEANWRKTGTITSAVNLDGVLWLQVVMNNDIDSEQQFRLLNSEILLERVQLPYSITELEHHHHHH	soluble
MALREMIIDESDDIESYSDQSLCLDKAKELLALIKLPTGLLPLKDMTEVGYNKTKGFVWMRMRSKIEHTFREIGRRVLYDTEITAFVEDRRMRRLTGVKSKELMIWVPVNDIFIKRKILRRSPLLIPPACHEHLKFQHFNVRVDKLKEKRSNQTSLM	not soluble
MSLGEKMAIWRTKKPATKQKIVSDLQELGIKKGDTIIFHASMSKAHWICGGPVTVILALQELVGELGNIVMPAQTGQLSDPAKWENPPVPESWWKIIRRETPPFDPLVTPTRGMGVIAETFRTMPDVERSFHPYHSFCAWGKDKKQILANQPLAKSMGDESPLGKMYQLDAKIILFGVDNNNNTSLHLAEERSNAFPLIENQAAFLKNGEIIWEKYQEIDYNSEVFIALGRAYEKEHDFHPTTIIGAPTKIYDMRDLVDFGTKYFQTKNHEGHHHHHH	soluble
MGSDKIHHHHHHMRADIIKVNHLLEIEMENNIGKEYLPSRLEEISDEHWHISMPMRKGMYITMRVGQKIRIVLRYRNTMFAATTVIAARRRGHIPVLIVSKPKDLIAINQKRTYVRISVAIPVAFRLLLADGEKGELLQGVTGDISAGGMLLLSPQDMEKDQKIEVEIKLPDSDSIFCQAHVVRVLGKASEEGSNNKYAIEYDDINEGQRDRIFRFIFDKQREWLRKGVTE	not soluble
GMTDTNLVEMRAIERMMFDYSYHLDMNHPEELAALFVEDCEVSYAPNFGATGRDAYKKTLEGIGTFFRGTSHHNSNICIDFVSETEANVRSVVLAIHRYTKERPDGILYGQYFDTVVKVDGQWKFKRRELRTTMTTDYHVRAANPIGRAE	soluble
